Legend:
[1] = target: T1, sCD4 D1-D4 (Homo sapiens, UniProt P01730); assay: Analytical gel filtration and native gel electrophoresis of Salp15-sCD4; format: binding; settings: native PAGE and Western blot
T1 construct: a sCD4 preparation that contains all four extracellular domains (D1-D4)
Experimental: Purified sCD4 (D1-D4, 10 μg) and Salp15 (20 μg) were eluted through two SUPERDEX-200™ HR 10/30 gel filtration columns (Amersham Pharmacia Biotech, Piscataway, N.J., U.S.A.) connected in tandem using PBS as equilibration and elution buffer at a flow rate of 0.3 mL/min using an FPLC system (Amersham Pharmacia Biotech) equipped with a liquid chromatography controller LCC-501 Plus and regulated using FPLC director V1.10. To get the elution profile of the Salp15-CD4 complex, Salp15 was incubated with sCD4 before passing it through the gel filtration column. Blue dextran was used to estimate the void volume of the columns, while BSA, ovalbumin and lysozyme were used as molecular weight standards with elution volumes of 14.78 mL, 26.45 mL, 28.45 mL and 39.28 mL, respectively.
Purified sCD4 (D1-D4, 10 μg), Salp15 (10 μg) and sCD4 (10 μg)+Salp15 (10 μg) were diluted into 50% glycerol, 40 mM HEPES (pH 6.5) and 50 mM imidazole (pH 6.5). The native gel [5% Acrylamide:Bis (29:1), 40 mM HEPES (pH 6.5), 50 mM imidazole (pH 6.5) and 10% glycerol] electrophoresis was performed using a 40 mM HEPES (pH 6.5) running buffer and 50 mM imidazole (pH 6.5) at 8 mAmps for 1.5 hours at 4° C. The gel was stained with coomassie blue or transferred to IMMOBILON P® (Millipore) blotting paper for immunoblotting with anti-Poly His-HRP and anti-CD4.

[2] = test system: Jurkat clone E6-1; assay: TCR ligation-induced tyrosine phosphorylation in stimulated Jurkat cells; format: cell-based, human
Experimental: Naïve CD4+ T cells from C3H/HeN, Balb/c, and B10.BR mice were purified as previously described (Anguita et al., 2002). CD4+ T cells were preincubated in Click's modified Bruff's Medium (Sigma Chemical Co., St. Louis, Mo., U.S.A.) for 10 minutes at 37° C. with and without Salp15 (50 μg/mL) and stimulated for 20 min or the indicated times at 37° C. with 10 μg/mL of anti-CD3ε, 1 μg/mL of anti-CD28, and 10 μg/mL of anti-armenian and syrian hamster IgG (BD Biosciences Pharmingen, San Jose, Calif., U.S.A.). Jurkat (E6-1) cells were stimulated using 5 μg/mL of OKT3 mAb (eBioscience, San Diego, Calif., U.S.A.) and 1 μg/mL of anti-human CD28 cross linked with 5 μg/mL anti-mouse IgG for the indicated times.
For the visualization of lipid rafts, phospho-tyrosine, and cytoskeleton reorganization, CD4^+, CD8^+ or Jurkat cells were cytospun for 10 minutes at 1000 RPM onto positively charged microslides (Fisher Scientific, Hampton, N.H., U.S.A.). The cells were fixed with 3.7% paraformaldehyde (Sigma Chemical Co.) for 15 minutes and stained with CTB594 (Molecular Probes, Eugene, Oreg., U.S.A.), AlexaFluor488 labeled phalloidin (Molecular Probes) or (1:50) biotin-conjugated anti-p-Tyr (PY99) followed by Streptavidin-AlexaFluor594 (1:100, Molecular Probes). […]

[3] = target: T1, sCD4 D1-D4; assay: Microtiter binding assay with immobilized sCD4 D1-D4; settings: Salp15 0.4 μM; similar kinetics to D1-D2
Experimental: Purified sCD4 was coated overnight at 4° C. at the indicated concentrations in 0.1M sodium carbonate buffer (pH 9.5) in 96 well plates. Equimolar amounts of lysozyme were used as a non-specific control. The wells were washed, blocked with 10% FCS/PBS for 1 hr at R.T., and incubated with Salp15 (0.4 μM) for 2 hr at 37° C. Salp15 binding was detected by incubation with horseradish peroxidase (HRP)-conjugated anti-His antibody for 1 hr followed by microwell peroxidase substrate (KPL). The reaction was stopped by adding TMB stop solution (KPL). Chemically synthesized overlapping peptides of Salp15 were purchased from GenScript Corporation (Piscataway, N.J., U.S.A). To study the binding of Salp15 and peptides to sCD4, Salp15 (5 μg) and different peptides (0.5 μg) were coated. The wells were washed and blocked prior to incubation with sCD4-HRP (Research Diagnostics Inc., Flanders, N.J., U.S.A.). For competition assays, indicated concentrations of Salp15 or P11 were added to sCD4-HRP and incubated with plate bound P11 (0.1 μg). To estimate the effect of dithiothreitol (DTT) treatment of Salp15 on binding to sCD4, 0.5 μM Salp15 was treated with 10 mM DTT overnight and immobilized onto microtiter plate followed by blocking and incubation with sCD4-HRP.

Salp15: secreted salivary protein from Ixodes scapularis, SEQ ID NO: 2; recombinant His-tagged, produced in Drosophila S2 cells
Migration with sCD4 (D1-D4) in native gel [1]: co-migrated | Inhibitory effects on TCR ligation-induced tyrosine phosphorylation ([2]; Jurkat cells, anti-pTyr staining): also observed | Inhibition of PLCγ1 phosphorylation ([2]; Jurkat clone E6-1): also evident | Binding to sCD4 D1-D4 [3]: saturable binding

Reference: US8119589B2, “Modulation of CD4+ T cell responses by a tick saliva protein, Salp15 and polypeptides derived therefrom” (University of North Carolina at Charlotte, priority 2004, dated 2012)
